Experimental data as given in patent US20240209076A1 (KODIAK SCIENCES, published 2024).

Target: T1, recombinant human IL-6 (human, UniProt P05231 30-212)
T1 construct: Flowed in solution over the captured antibodies
Assay: SPR (Biacore), supernatant IgG on Protein A, 25 C
Description: Antibodies were captured on a Protein A chip (GE) by injecting 1:20 dilution of cell supernatant at 10 μL/min for 60 seconds. […] The sensor chip was regenerated by a 60 seconds injection of 10 mM Glycine pH 1.7 at flow rate of 50 μL/min. […] For this setup, 1 μg/mL of purified antibody was injected over a Protein A chip at 10 μL/min for 25-28 seconds. Data analysis for supernatant and purified samples were performed using BIAevaluation software (GE). All sensorgrams were double reference subtracted and fit using a 1:1 Langmuir binding model.

T1 sequence (P05231 30-212 limits assumed): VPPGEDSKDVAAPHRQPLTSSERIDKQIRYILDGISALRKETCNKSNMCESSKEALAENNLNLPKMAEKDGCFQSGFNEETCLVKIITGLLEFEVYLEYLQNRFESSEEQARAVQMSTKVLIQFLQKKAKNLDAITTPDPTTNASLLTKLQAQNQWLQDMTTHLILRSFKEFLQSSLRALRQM

Binder	Kd [nM]	koff [s⁻¹]	kon [M⁻¹ s⁻¹]
anti-IL-6 antibody, heavy chain R98G, light chain WT (antibody, IgG1, V domains shown, Full IgG1 tested; V domains derived as in m2) VH: EVQLVESGGGLVQPGGSLRLSCAASGFTFSPFAMSWVRQAPGKGLEWVAKISPGGSWTYYSDTVTGRFTFSLDTSKSTAYLQMNSLRAEDTAVYYCAGQLWGYYALDIWGQGTLVTVSS VL: DIQLTQSPSSLSASVGDRVTITCSASISVSYMYWYQQKPGKAPKLLIYDMSNLASGVPSRFSGSGSGTDFTLTISSLQPEDFATYYCMQWSGYPYTFGQGTKVEIK	1.42	0.000251	176000
anti-IL-6 antibody, heavy chain S35H, light chain WT (antibody, IgG1, V domains shown, Full IgG1 tested; V domains derived as in m2) VH: EVQLVESGGGLVQPGGSLRLSCAASGFTFSPFAMHWVRQAPGKGLEWVAKISPGGSWTYYSDTVTGRFTFSLDTSKSTAYLQMNSLRAEDTAVYYCARQLWGYYALDIWGQGTLVTVSS VL: DIQLTQSPSSLSASVGDRVTITCSASISVSYMYWYQQKPGKAPKLLIYDMSNLASGVPSRFSGSGSGTDFTLTISSLQPEDFATYYCMQWSGYPYTFGQGTKVEIK	0.379	0.000132	348000
anti-IL-6 antibody, heavy chain S30G, light chain WT (antibody, IgG1, V domains shown, Full IgG1 tested; V domains derived as in m2; also called S30G (heavy chain)) VH: EVQLVESGGGLVQPGGSLRLSCAASGFTFGPFAMSWVRQAPGKGLEWVAKISPGGSWTYYSDTVTGRFTFSLDTSKSTAYLQMNSLRAEDTAVYYCARQLWGYYALDIWGQGTLVTVSS VL: DIQLTQSPSSLSASVGDRVTITCSASISVSYMYWYQQKPGKAPKLLIYDMSNLASGVPSRFSGSGSGTDFTLTISSLQPEDFATYYCMQWSGYPYTFGQGTKVEIK	0.333	0.000132	398000
anti-IL-6 antibody, heavy chain S30Y, light chain WT (antibody, IgG1, V domains shown, Full IgG1 tested; V domains derived as in m2) VH: EVQLVESGGGLVQPGGSLRLSCAASGFTFYPFAMSWVRQAPGKGLEWVAKISPGGSWTYYSDTVTGRFTFSLDTSKSTAYLQMNSLRAEDTAVYYCARQLWGYYALDIWGQGTLVTVSS VL: DIQLTQSPSSLSASVGDRVTITCSASISVSYMYWYQQKPGKAPKLLIYDMSNLASGVPSRFSGSGSGTDFTLTISSLQPEDFATYYCMQWSGYPYTFGQGTKVEIK	0.334	0.000122	365000
anti-IL-6 antibody, heavy chain S30W, light chain WT (antibody, IgG1, V domains shown, Full IgG1 tested; V domains derived as in m2) VH: EVQLVESGGGLVQPGGSLRLSCAASGFTFWPFAMSWVRQAPGKGLEWVAKISPGGSWTYYSDTVTGRFTFSLDTSKSTAYLQMNSLRAEDTAVYYCARQLWGYYALDIWGQGTLVTVSS VL: DIQLTQSPSSLSASVGDRVTITCSASISVSYMYWYQQKPGKAPKLLIYDMSNLASGVPSRFSGSGSGTDFTLTISSLQPEDFATYYCMQWSGYPYTFGQGTKVEIK	0.376	0.000157	417000

Next, values leading:

Kd [nM]	koff [s⁻¹]	kon [M⁻¹ s⁻¹]	Binder
0.452	0.000161	356000	anti-IL-6 antibody, heavy chain S56H, light chain WT (antibody, IgG1, V domains shown, Full IgG1 tested; V domains derived as in m2) VH: EVQLVESGGGLVQPGGSLRLSCAASGFTFSPFAMSWVRQAPGKGLEWVAKISPGGHWTYYSDTVTGRFTFSLDTSKSTAYLQMNSLRAEDTAVYYCARQLWGYYALDIWGQGTLVTVSS VL: DIQLTQSPSSLSASVGDRVTITCSASISVSYMYWYQQKPGKAPKLLIYDMSNLASGVPSRFSGSGSGTDFTLTISSLQPEDFATYYCMQWSGYPYTFGQGTKVEIK
0.346	0.00013	375000	anti-IL-6 antibody, heavy chain S35Q, light chain WT (antibody, IgG1, V domains shown, Full IgG1 tested; V domains derived as in m2) VH: EVQLVESGGGLVQPGGSLRLSCAASGFTFSPFAMQWVRQAPGKGLEWVAKISPGGSWTYYSDTVTGRFTFSLDTSKSTAYLQMNSLRAEDTAVYYCARQLWGYYALDIWGQGTLVTVSS VL: DIQLTQSPSSLSASVGDRVTITCSASISVSYMYWYQQKPGKAPKLLIYDMSNLASGVPSRFSGSGSGTDFTLTISSLQPEDFATYYCMQWSGYPYTFGQGTKVEIK
0.567	0.000155	273000	anti-IL-6 antibody, heavy chain S56R, light chain WT (antibody, IgG1, V domains shown, Full IgG1 tested; V domains derived as in m2) VH: EVQLVESGGGLVQPGGSLRLSCAASGFTFSPFAMSWVRQAPGKGLEWVAKISPGGRWTYYSDTVTGRFTFSLDTSKSTAYLQMNSLRAEDTAVYYCARQLWGYYALDIWGQGTLVTVSS VL: DIQLTQSPSSLSASVGDRVTITCSASISVSYMYWYQQKPGKAPKLLIYDMSNLASGVPSRFSGSGSGTDFTLTISSLQPEDFATYYCMQWSGYPYTFGQGTKVEIK
